This test concerns the target T1, soluble human CD3 epsilon chain (human, UniProt P07766 23-126).
T1 construct: also called CD3ε
Nature of the test: SPR. For orientation: Surface plasmon resonance follows binding to a sensor surface in real time, without labels.

Substitutions are numbered along the chain they refer to.

T1 sequence (P07766 23-126 limits assumed): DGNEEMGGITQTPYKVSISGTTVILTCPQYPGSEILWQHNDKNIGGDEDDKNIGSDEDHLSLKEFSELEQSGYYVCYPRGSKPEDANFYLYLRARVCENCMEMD

B1: TR01H006-E22Hh/none-Hi-Kn010G3/L0000-k0 (antibody, V domains shown)
VH: QVQLVESGGGLVQPGRSLRLSCAASGFTFSNAWMHWVRQAPGKGLEWVAQIKAKSQNYATYYAESVKGRFTISRADSKNSIYLQMNSLKTEDTAVYYCRYVHYGAYYGVDIWGQGTTVTVSS
VL: DIVMTQSPLSLPVTPGEPASISCRSSQSLVHSNRNTYLHWYQQKPGQAPRLLIYKVSNRFSGVPDRFSGSGSGTDFTLKISRVEAEDVGVYYCGQGTQVPYTFGQGTKLEIKR
notes: one-arm
The molecule B1 had an equilibrium dissociation constant (Kd) of 23 nM.

B2: TR01H040-E22Hh/none-Hi-Kn010G3/L0208-k0 (antibody, V domains shown)
VH: B1 VH with A53D, G104S, Y106S, I111A
VL: B1 VL with L29P, S61W, G94Y
notes: one-arm
B2: binding was put at a Kd of 4.16 nM.

B3: TR01H035-E22Hh/none-Hi-Kn010G3/L0000-k0 (antibody, V domains shown)
VH: B1 VH with A53G, G104S, Y106S, I111Y
VL: B1 VL
notes: one-arm
Regarding B3, binding was characterised by a dissociation constant (Kd) of 84.9 nM.

B4: TR01H017-E22Hh/none-Hi-Kn010G3/L0000-k0 (antibody, V domains shown)
VH: B1 VH with R16G, Q56N
VL: B1 VL
notes: one-arm
As for B4, binding was put at a Kd of 35 nM.

B5: TR01H008-E22Hh/none-Hi-Kn010G3/L0000-k0 (antibody, V domains shown)
VH: B1 VH with A53G, Q56N
VL: B1 VL
notes: one-arm
With B5, binding was put at a Kd of 42.2 nM.

B6: TR01H025-E22Hh/none-Hi-Kn010G3/L0000-k0 (antibody, V domains shown)
VH: B1 VH with A53S, G104S, Y106S
VL: B1 VL
notes: one-arm
The molecule B6 yielded a Kd of 38.6 nM.

B7: TR01H016-E22Hh/none-Hi-Kn010G3/L0000-k0 (antibody, V domains shown)
VH: B1 VH with A53G, Q56N, G104S, A105Y, Y106S
VL: B1 VL
notes: one-arm
B7 displayed a Kd of 36.9 nM.

B8: TR01H030-E22Hh/none-Hi-Kn010G3/L0000-k0 (antibody)
VH: B1 VH with L11V, A53G, Q56N, G104S, Y106S
light: DIVMTQSPLSLPVTPGEPASISCRSSQSLVHSNRNTYLHWYQQKPGQAPRLLIYKVSNRFSGVPDRFSGSGSGTDFTLKISRVEAEDVGVYYCGQGTQVPYTFGQGTKLEIKRTVAAPSVFIFPPSDEQLKSGTASVVCLLNNFYPREAKVQWKVDNALQSGNSQESVTEQDSKDSTYSLSSTLTLSKADYEKHKVYACEVTHQGLSSPVTKSFNRGEC
notes: one-arm
B8 returned a Kd of 65.4 nM.

B9: TR01H024-E22Hh/none-Hi-Kn010G3/L0000-k0 (antibody, V domains shown)
VH: B1 VH with R16G, A53G, G104S, Y106S, I111A
VL: B1 VL
notes: one-arm
B9 showed a Kd of 108 nM.

B10: TR01H007-E22Hh/none-Hi-Kn010G3/L0000-k0 (antibody, V domains shown)
VH: B1 VH with A53S, Q56N
VL: B1 VL
notes: one-arm
B10 yielded a Kd of 21.7 nM.

B11: TR01H023-E22Hh/none-Hi-Kn010G3/L0000-k0 (antibody, V domains shown)
VH: B1 VH with R16G, A53G, G104S, Y106S
VL: B1 VL
notes: one-arm
B11 showed a Kd of 79.4 nM.

B12: TR01H026-E22Hh/none-Hi-Kn010G3/L0000-k0 (antibody, V domains shown)
VH: B1 VH with R16G, A53S, G104S, Y106S
VL: B1 VL
notes: one-arm
In turn, B12 showed a Kd of 51.2 nM.

B13: TR01H040-E22Hh/none-Hi-Kn010G3/L0011-k0 (antibody, V domains shown)
VH: B1 VH with A53D, G104S, Y106S, I111A
VL: B1 VL with S28P
notes: one-arm
Molecule B13 came in with a dissociation constant (Kd) of 34.8 nM.

B14: TR01H040-E22Hh/none-Hi-Kn010G3/L0211-k0 (antibody, V domains shown)
VH: B1 VH with A53D, G104S, Y106S, I111A
VL: B1 VL with S28P, L29P, G94Y
notes: one-arm
With B14, binding was characterised by a dissociation constant (Kd) of 3.22 nM.

B15: TR01H020-E22Hh/none-Hi-Kn010G3/L0000-k0 (antibody, V domains shown)
VH: B1 VH with A53G, Q56N, E64P, G104S, Y106S
VL: B1 VL
notes: one-arm
B15: the Kd is 64.8 nM.

B16: TR01H022-E22Hh/none-Hi-Kn010G3/L0000-k0 (antibody, V domains shown)
VH: B1 VH with R16G, A53G, E64P, G104S, Y106S
VL: B1 VL
notes: one-arm
As for B16, binding was put at a Kd of 75.8 nM.

B17: TR01H014-E22Hh/none-Hi-Kn010G3/L0000-k0 (antibody, V domains shown)
VH: B1 VH with A53G, Q56N, E64P
VL: B1 VL
notes: one-arm
B17 registered a Kd of 38.7 nM.

B18: TR01H010-E22Hh/none-Hi-Kn010G3/L0000-k0 (antibody, V domains shown)
VH: B1 VH with Q56N, G104S
VL: B1 VL
notes: one-arm
In turn, B18 returned a Kd of 37.3 nM.

B19: TR01H009-E22Hh/none-Hi-Kn010G3/L0000-k0 (antibody, V domains shown)
VH: B1 VH with Q56N, E64P
VL: B1 VL
notes: one-arm
In turn, B19 displayed a Kd of 31.5 nM.

B20: TR01H027-E22Hh/none-Hi-Kn010G3/L0000-k0 (antibody, V domains shown)
VH: B1 VH with R16G, A53S, G104S, Y106S, I111A
VL: B1 VL
notes: one-arm
The molecule B20 came in with a Kd of 69.5 nM.

B21: TR01H040-E22Hh/none-Hi-Kn010G3/L0206-k0 (antibody, V domains shown)
VH: B1 VH with A53D, G104S, Y106S, I111A
VL: B1 VL with L29P, G94Y
notes: one-arm
Turning to B21, the Kd is 2.9 nM.

B22: TR01H040-E22Hh/none-Hi-Kn010G3/L0203-k0 (antibody, V domains shown)
VH: B1 VH with A53D, G104S, Y106S, I111A
VL: B1 VL with L29P, L38I
notes: one-arm
As for B22, the Kd is 32.4 nM.

B23: TR01H033-E22Hh/none-Hi-Kn010G3/L0000-k0 (antibody, V domains shown)
VH: B1 VH with A53S, G104S, Y106S, I111Y
VL: B1 VL
notes: one-arm
B23: the Kd was determined as 48.8 nM.

B24: TR01H040-E22Hh/none-Hi-Kn010G3/L0000-k0 (antibody, V domains shown)
VH: B1 VH with A53D, G104S, Y106S, I111A
VL: B1 VL
notes: one-arm
As for B24, the affinity, expressed as Kd, was 36 nM.

B25: TR01H034-E22Hh/none-Hi-Kn010G3/L0000-k0 (antibody, V domains shown)
VH: B1 VH with A53G, G104S, Y106S, I111A
VL: B1 VL
notes: one-arm
Take B25: binding was characterised by a dissociation constant (Kd) of 91.1 nM.

B26: TR01H018-E22Hh/none-Hi-Kn010G3/L0000-k0 (antibody)
VH: B1 VH with R16G, A53G, Q56N, G104S, Y106S
light: B8 light
notes: one-arm
In the case of B26, the Kd amounted to 69.3 nM.

B27: TR01H021-E22Hh/none-Hi-Kn010G3/L0000-k0 (antibody, V domains shown)
VH: B1 VH with A53G, Q56N, G104S, Y106S, I111A
VL: B1 VL
notes: one-arm
Regarding B27, the Kd worked out at 80.5 nM.

B28: TR01H012-E22Hh/none-Hi-Kn010G3/L0000-k0 (antibody, V domains shown)
VH: B1 VH with Q56N, G104Y, A105Y, Y106S
VL: B1 VL
notes: one-arm
As for B28, binding was characterised by a dissociation constant (Kd) of 7.94 nM.

B29: TR01H013-E22Hh/none-Hi-Kn010G3/L0000-k0 (antibody, V domains shown)
VH: B1 VH with A53G
VL: B1 VL
notes: one-arm
In turn, B29 gave a Kd of 49.4 nM.

B30: TR01H029-E22Hh/none-Hi-Kn010G3/L0000-k0 (antibody, V domains shown)
VH: B1 VH with A23S, A53G, Q56N, G104S, Y106S
VL: B1 VL
notes: one-arm
The molecule B30 showed a Kd of 67 nM.

B31: TR01H039-E22Hh/none-Hi-Kn010G3/L0000-k0 (antibody, V domains shown)
VH: B1 VH with A53D, G104S, Y106S
VL: B1 VL
notes: one-arm
The molecule B31 displayed a Kd of 26.1 nM.

B32: TR01H036-E22Hh/none-Hi-Kn010G3/L0000-k0 (antibody, V domains shown)
VH: B1 VH with A53G, Q56N, G104S, Y106S, I111Y
VL: B1 VL
notes: one-arm
In turn, B32 showed a Kd of 65 nM.

B33: TR01H040-E22Hh/none-Hi-Kn010G3/L0201-k0 (antibody, V domains shown)
VH: B1 VH with A53D, G104S, Y106S, I111A
VL: B1 VL with S28P, L29P
notes: one-arm
For the molecule B33, the Kd was found to be 28.1 nM.

B34: TR01H011-E22Hh/none-Hi-Kn010G3/L0000-k0 (antibody, V domains shown)
VH: B1 VH with Q56N, Y106S
VL: B1 VL
notes: one-arm
B34 returned a Kd of 37.1 nM.

B35: TR01H019-E22Hh/none-Hi-Kn010G3/L0000-k0 (antibody, V domains shown)
VH: B1 VH with A53G, G104S, Y106S
VL: B1 VL
notes: one-arm
B35 yielded a Kd of 68.5 nM.

B36: TR01H028-E22Hh/none-Hi-Kn010G3/L0000-k0 (antibody, V domains shown)
VH: B1 VH with L11V, R16G, A53S, G104S, Y106S
VL: B1 VL
notes: one-arm
The molecule B36 displayed a dissociation constant Kd of 48 nM.

B37: TR01H040-E22Hh/none-Hi-Kn010G3/L0204-k0 (antibody, V domains shown)
VH: B1 VH with A53D, G104S, Y106S, I111A
VL: B1 VL with L29P, S61R
notes: one-arm
Take B37: binding was put at a Kd of 22.1 nM.

B38: TR01H040-E22Hh/none-Hi-Kn010G3/L0209-k0 (antibody, V domains shown)
VH: B1 VH with A53D, G104S, Y106S, I111A
VL: B1 VL with L29P, L38I, G94Y
notes: one-arm
On to B38, for which the Kd is 4.25 nM.

B39: TR01H032-E22Hh/none-Hi-Kn010G3/L0000-k0 (antibody, V domains shown)
VH: B1 VH with A53S, G104S, Y106S, I111A
VL: B1 VL
notes: one-arm
B39 came in with a Kd of 57.3 nM.

B40: TR01H037-E22Hh/none-Hi-Kn010G3/L0000-k0 (antibody, V domains shown)
VH: B1 VH with H35P, A53G, Q56N, G104S, Y106S
VL: B1 VL
notes: one-arm
B40 gave a Kd of 6.93 nM.

B41: TR01H038-E22Hh/none-Hi-Kn010G3/L0000-k0 (antibody, V domains shown)
VH: B1 VH with A53D, Q56N, G104S, Y106S
VL: B1 VL
notes: one-arm
B41: binding was put at a Kd of 12.4 nM.

B42: TR01H031-E22Hh/none-Hi-Kn010G3/L0000-k0 (antibody)
VH: B1 VH with L11V, R16G, A53G, Q56N, G104S, Y106S
light: B8 light
notes: one-arm
Molecule B42 gave a Kd of 75.5 nM.

The Kd is the constant that tells how readily two partners part at equilibrium.
